Measured values reported in patent US5273879, “Amplification method for polynucleotide assays” (Syntex (U.S.A.) Inc.).

Molecular target: Klenow fragment DNA polymerase (UniProt P00582 P00582:324-928)
Test: primer extension, 7 mM MgCl2, 50 mM NaCl, 37 C
Conditions: tags: Pharmacia Lot NM 92818; label: 5'-32P on 17 mer
Procedure: The 120 mer (1 μg=25 pmoles) was incubated with a ten-fold molar excess (1.4 μg=250 pmoles) of 17 mer including all of the radioactively labeled 17 mer described above at 60° C. for 5 minutes and then slowly cooled over 30 minutes to 37° C. in a volume of 20.2 μl in 1.3×Klenow buffer (1×Klenow buffer is 7 mM Tris-HCl (pH 7.5), 7 mM MgCl_2, 50 mM NaCl). To this cooled reaction mix was added 2 μl of a solution of 0.4 mM dATP, dCTP, dGTP, dTTP (final conc.=32 μM of each dNTPs), 1.8 μl of 0.1M dithiothreitol (final conc.=[…]) and 7.2 units of Klenow polymerase (Pharmacia Lot #NM 92818) in a final concentration of 1×Klenow buffer. This reaction was incubated at 37° C. for 30 minutes. An additional 7.2 units of Klenow polymerase (1 μl volume) was added and the reaction was continued at 37° C. for one hour.
The reaction products were ethanol precipitated by the addition of 375 μl of 0.3M Na Acetate (pH 5.4) and 1.1 ml ethanol (−20° C.), followed by spinning at 15,000 g's for 30 minutes. The precipitated DNA was then resuspended in 25 μl of H_2O and reprecipitated with 1 ml of 100% ethanol (4° C.) and centrifugation as above. The supernatant was removed and the precipitated DNA pellet dried under vacuum.

Klenow fragment DNA polymerase, sequence (P00582 324-928, one chain of several): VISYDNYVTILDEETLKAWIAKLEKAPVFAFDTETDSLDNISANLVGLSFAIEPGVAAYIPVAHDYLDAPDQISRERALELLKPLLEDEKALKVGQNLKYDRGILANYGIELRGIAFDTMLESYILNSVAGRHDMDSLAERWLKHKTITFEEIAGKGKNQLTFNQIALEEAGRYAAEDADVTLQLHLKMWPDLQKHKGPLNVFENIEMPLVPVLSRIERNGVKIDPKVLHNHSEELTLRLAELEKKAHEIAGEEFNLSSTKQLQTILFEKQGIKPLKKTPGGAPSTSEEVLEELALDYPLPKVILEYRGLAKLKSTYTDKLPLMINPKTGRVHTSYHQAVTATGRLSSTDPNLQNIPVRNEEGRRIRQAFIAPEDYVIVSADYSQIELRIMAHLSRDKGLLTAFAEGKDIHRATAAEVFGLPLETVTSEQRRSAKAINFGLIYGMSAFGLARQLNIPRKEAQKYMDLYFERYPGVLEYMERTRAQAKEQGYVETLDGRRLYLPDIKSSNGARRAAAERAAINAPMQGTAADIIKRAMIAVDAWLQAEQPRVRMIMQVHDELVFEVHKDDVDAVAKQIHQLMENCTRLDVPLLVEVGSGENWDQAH

B1: 120 mer repeating template / 17 mer primer, extended (dsDNA)
DNA 1: CGGGGAATTCTTTAAATATTCCTTTAAACCTACCTTTAAACCTACCTTTAAACCTACCTTTAAACCTACCTTTAAACCTACCTTTAAACCTACCTTTAAATATTCCGAATTCACTGGCCG
DNA 2: CGGCCAGTGAATTCGGA
B1: binds.
